{
  "source": "the nanobody polyreactivity screen of Harvey et al. (2022)",
  "data": [
    {"assay": "yeast display, Sf9 membrane polyspecificity reagent, FACS + sequencing; frameworks hold sequencing errors", "in_short": "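Galactose-induced (36–48 hours) yeast carrying a synthetic nanobody display library were exposed to 10% biotinylated, detergent-solubilized Sf9 membrane reagent at 4 °C for 1 hour. FACS followed streptavidin microbead enrichment, using low and high (top ~1%) gates for expression (anti-HA) and reagent binding (streptavidin). Colony PCR, MiSeq 2 × 250 sequencing and CDR-length filtering followed. Labels for polyreactivity reflect the gate of origin.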", "values": [
      {"sequence": "QVQLVESGGGLVQAGGSLRLSCAASGRIFQRYTMGWYRQAPGKEREFVAAITYSGGSTHYADSVKRRFTISRDNAKYTVYLQMNSLKPEDTAVYSCNARTSVLHDYWGQGTQVTVSS", "polyreactivity (PSR sort gate)": "low polyreactivity"},
      {"sequence": "QVQLVESGGGLVQAGGSLRLSCAASGRIFQYYAMGWYRQAPGKERELVAAINSSGGRTYYADSVKGRFTISRDNAKNTVYLQMNSLKPEDTAVYYCNAVLSTRGMDYWGQGTQVTVSS", "polyreactivity (PSR sort gate)": "high polyreactivity"},
      {"sequence": "QVQLVESGGGLVQAGGSLRLSCAASGRIFQYYAMGWYRQAPGKERELVAAISSAGSTYYADSVKGRFTISRDNAKNTVYLQMNSLKPEDTAVYYCAVGKQVLSYQNYYWGQGTQVTVSS", "polyreactivity (PSR sort gate)": "low polyreactivity"},
      {"sequence": "QVQLVESGGGLVQAGGSLRLSCAASGRIFQYYAMGWYRQAPGKERELVAAITRSGGSTYYADSVNGRFTISRDNAKNTVYLQMNSLKPEDTAVYYCARTYWITNSKFRDYLGAYGGEYWGQGTQVTVSS", "polyreactivity (PSR sort gate)": "high polyreactivity"},
      {"sequence": "QVQLVESGGGLVQAGGSLRLSCAASGRIFQYYAMGWYRQATGKERELVAAISRTGSPYYADSVKGRVTISRDNAKNTVSLQMNSLTPADTAVYFCAADYWPQSNRWVYFRYGYWGLGTQVTVSS", "polyreactivity (PSR sort gate)": "high polyreactivity"},
      {"sequence": "QVQLVESGGGLVQAGGSLRLSCAASGRIFRANAMGWYRQAPGKERELVAAISTSGGSTTYADSVKGRFTISRDNAKNTVYLQMNCLKPEDTAVYYCAVDSWLKWRDKWVIRHDYWGQGTQVTVSS", "polyreactivity (PSR sort gate)": "high polyreactivity"},
      {"sequence": "QVQLVESGGGLVQAGGSLRLSCAASGRIFRANTMGWYRQAPGKERELVAVITASGGSTYYADSVKGRFTISRDNAKNTVYLQMNSLKPEDTAVYYCNRVPRTRLSGHDYWGQGTQVTVSS", "polyreactivity (PSR sort gate)": "high polyreactivity"},
      {"sequence": "QVQLVESGGGLVQAGGSLRLSCAASGRIFRAYAMGWYRQAPGKERELVAAITSGVSTNYADSVKGRFTISRDNAKNTVYLQMNSLKPEDTAVYYCAVLGKRNAYYYWGQGTQVTVSS", "polyreactivity (PSR sort gate)": "low polyreactivity"},
      {"sequence": "QVQLVESGGGLVQAGGSLRLSCAASGRIFRAYAMGWYRQAPGKERELVASITGSGGSTYYADSVKGRFTISRDNAKNTVYFQMNILKPEDTAVYYCAVASYRVWGVGTRYYYWGQGTHVTVSS", "polyreactivity (PSR sort gate)": "high polyreactivity"},
      {"sequence": "QVQLVESGGGLVQAGGSLRLSCAASGRIFRAYTMGWYRPAPGKERELVAAISTRSGRTYYADSVKGRFTISRDKEKNTVYLQMNSLKPEDTAVYYCAADRSGSAWYGYWGQGTQVTVSS", "polyreactivity (PSR sort gate)": "high polyreactivity"},
      {"sequence": "QVQLVESGGGLVQAGGSLRLSCAASGRIFRDYVMGWYRQAPGKERELVAAITQRGGSTYYADSVKGRFTISRDNAKNTVYLQLNSLKPEDTAVYYCNARWYRYGTGGVGYGGYDYWGQGTQVTVSS", "polyreactivity (PSR sort gate)": "low polyreactivity"},
      {"sequence": "QVQLVESGGGLVQAGGSLRLSCAASGRIFRENAMGWYRQAPGKERELVAAINRSGSRTYYADSVKGRFTISRDNAKNTVYLQMNSLKPEDTAVYYCATASSIRYDYWGQGTQVTVSS", "polyreactivity (PSR sort gate)": "high polyreactivity"},
      {"sequence": "QVQLVESGGGLVQAGGSLRLSCAASGRIFRGNAMGWYRQAPGKERELVARITGNDGDTYYADSVKGRFTISRDNAKNTVYLQMNSLKPEDTAVYYCATDTSSYRRRYYYWGQGTQVTVSS", "polyreactivity (PSR sort gate)": "low polyreactivity"},
      {"sequence": "QVQLVESGGGLVQAGGSLRLSCAASGRIFRGNAMGWYRQVPGKERELVAAISSGTRTTYADSVKGRFTISRDNAKNTVYLQMNSLKPEDTAVYYCAARTSNYPRWRVGGYSYDYWGQGTQVTVSS", "polyreactivity (PSR sort gate)": "high polyreactivity"},
      {"sequence": "QVQLVESGGGLVQAGGSLRLSCAASGRIFRGNAMGWYRQVPGKERELVAAISSGTRTTYADSVKGRFTISRDNAKNTVYLQMNSLKPEDTAVYYCAAYNSYLGYPYYYWGQGTQVTVSS", "polyreactivity (PSR sort gate)": "high polyreactivity"},
      {"sequence": "QVQLVESGGGLVQAGGSLRLSCAASGRIFRGYAMGWYRQAPGKERELVATISAIGGSTYADSVKGRFTISRDNAKNTVYLQMNSLKPEDTAVYYCNVRKVYRYQYRFEYWGQGTQVTVSS", "polyreactivity (PSR sort gate)": "high polyreactivity"},
      {"sequence": "QVQLVESGGGLVQAGGSLRLSCAASGRIFRGYAMGWYRQAPGKERELVAVISYSGTRTYYADSVKGRFTISRDNAKNTVYLQMNSLKPEDTAVYYCNARANGFKDGYWGQGTQVTVSS", "polyreactivity (PSR sort gate)": "high polyreactivity"},
      {"sequence": "QVQLVESGGGLVQAGGSLRLSCAASGRIFRGYAMGWYRQAPGTERELVAAISRRGGSTYYAASVKGRFTISRDNAKNTVYLQNNSLKPEDTAVYYCNADGVHYVAYAGGYWGQGTQVTVSS", "polyreactivity (PSR sort gate)": "high polyreactivity"},
      {"sequence": "QVQLVESGGGLVQAGGSLRLSCAASGRIFRGYVMGWYRQAPGKERELVAVITSGGRTYYADSVKGRFTISRDNAKNTVYLQMNSHKPEDTAVYYCATYPRYKPYYYWGQGTQVTVSS", "polyreactivity (PSR sort gate)": "low polyreactivity"},
      {"sequence": "QVQLVESGGGLVQAGGSLRLSCAASGRIFRHNTMGWYLQAPGKERELVAAIRYSGGRTYYADSVKGRFTLSRDTAKNTFYLQMNSLKPEDTAVYYCAATYFAAVYSSWYWFDYWGQGTQVTVSS", "polyreactivity (PSR sort gate)": "high polyreactivity"},
      {"sequence": "QVQLVESGGGLVQAGGSLRLSCAASGRIFRHNTMGWYRQAPGNESELVAGITASGGDTYYADSVTGRFTISRDNAKNTVYLQMNSLNPEDTAVYDCATSQYGYRSWPGLYYWGQGTQVTVSS", "polyreactivity (PSR sort gate)": "low polyreactivity"},
      {"sequence": "QVQLVESGGGLVQAGGSLRLSCAASGRIFRINAMGWYRQAPGKERELVATISSGGGSTYADSVKGRFTISRDNAKTTVYLQMNSLKPEDTAVYYCAARSRIGRYTYDYWGQGTQVTVSS", "polyreactivity (PSR sort gate)": "high polyreactivity"},
      {"sequence": "QVQLVESGGGLVQAGGSLRLSCAASGRIFRINAMGWYRQAPGKERELVATITSGGRTKYADSVKGRFTISRDNAKNTVYLQMNSLKPEDTAVYYCAADWRVRVRQHIPDKYDYWGQGTQVTVSS", "polyreactivity (PSR sort gate)": "low polyreactivity"},
      {"sequence": "QVQLVESGGGLVQAGGSLRLSCAASGRIFRINGMGWYRQAPGKEREFVAAITSGGGTYYADSVKGRFTISRDNAKNTVYLQMNSLKPEDTAVYYCAVRRRYGDDYWGQGTQVTVSS", "polyreactivity (PSR sort gate)": "high polyreactivity"},
      {"sequence": "QVQLVESGGGLVQAGGSLRLSCAASGRIFRKNARGWYRQAPGKEREFVAAIRLSGGRTFYADSVKGRFTISRDNAKNTVYLQMNSLKPEDTAVYYCAAETVNGKHDYWGQGTQVTVSS", "polyreactivity (PSR sort gate)": "high polyreactivity"},
      {"sequence": "QVQLVESGGGLVQAGGSLRLSCAASGRIFRKNVMGWYRQAPGKERELVAAIRWSGGGTYYADSVKGRFTISRDNAKNTVYLQMNSLKPEDTAVYYCAAVPTSSAYDYWGQGTQVTVSS", "polyreactivity (PSR sort gate)": "high polyreactivity"},
      {"sequence": "QVQLVESGGGLVQAGGSLRLSCAASGRIFRLYAMGWYRQAPGKERELGAAISSRGGDTYADSVKGRFTISRDNAKNTVYLQMNSLKPEDTAVYYCNDVIYYPYKSGVWYYEYDYWGQGTKVTVSS", "polyreactivity (PSR sort gate)": "low polyreactivity"},
      {"sequence": "QVQLVESGGGLVQAGGSLRLSCAASGRIFRLYAMGWYRQSPGKERELVATITSGGTYYADSVKGRFTISRDNAKNTVYLQMNSLKPEDTAVYYCTARRRLRYDYWGQGTQVTVSS", "polyreactivity (PSR sort gate)": "low polyreactivity"},
      {"sequence": "QVQLVESGGGLVQAGGSLRLSCAASGRIFRPNAMGWNRQAPGKVRELVAAISSGGSTYYADSVKGRFTISRDNAKNTVYLQMNSLKPEDTAVYYCAARSRGYDIRYGYWGQGTQVTVSS", "polyreactivity (PSR sort gate)": "high polyreactivity"},
      {"sequence": "QVQLVESGGGLVQAGGSLRLSCAASGRIFRPYAMGWYRLAPGKERELVAAISWSGDDTYYADSVKGRFTISRDNAKNTVYLQMNSLKPEDTAVYYCAAEVYAAAYDYWGQGTQVTVSS", "polyreactivity (PSR sort gate)": "low polyreactivity"},
      {"sequence": "QVQLVESGGGLVQAGGSLRLSCAASGRIFRPYAMGWYRQAPGKERELVAAITQSGGITSYADSVKGRFTISRDNAKNSVYLQMNSLKPEDTAVYYCATTSRYTRSHYDWYDYWGQGTQVTVSS", "polyreactivity (PSR sort gate)": "low polyreactivity"},
      {"sequence": "QVQLVESGGGLVQAGGSLRLSCAASGRIFRPYTMGWYRQAPGKERELVAAITSGSSTNYADSVKGRFTISRDNAKNTVYLHMNSLKPEDTAVYYCAVKVRIFASYYPFYYWGQGSQVTVSS", "polyreactivity (PSR sort gate)": "high polyreactivity"},
      {"sequence": "QVQLVESGGGLVQAGGSLRLSCAASGRIFRQNAMGWYRQAPGKERELVAAISRSGGSTYYADSVKGRFTISRDNAKNTVYLQMNSLNPEDTAVYYCNRDYQSQRTYPRRYDYWGQGTQVTVSS", "polyreactivity (PSR sort gate)": "low polyreactivity"},
      {"sequence": "QVQLVESGGGLVQAGGSLRLSCAASGRIFRQYAMGWYRQAPGKERELVAAITSGGSTNYADSVKGRFTISRDNAKNTVYLQMNSLKPEDTAVYYCNAAGGTRSGVQYDYWGQGTQVTVSS", "polyreactivity (PSR sort gate)": "low polyreactivity"},
      {"sequence": "QVQLVESGGGLVQAGGSLRLSCAASGRIFRQYAMGWYRQAPGKERELVAAITSGGSTNYADSVKGRFTISRDNAKNTVYLQMNSLKPEDTAVYYCNARWPYAYQDGYWGQGTQVTVSS", "polyreactivity (PSR sort gate)": "low polyreactivity"},
      {"sequence": "QVQLVESGGGLVQAGGSLRLSCAASGRIFRRNAMGWYRQAPGKERELVAAITSNGGRTYYADSVKGRFTISRDNAKNTVYLQMNSLKPEDTAVYYCAADTYDNDYYYWGQGTQVTVSS", "polyreactivity (PSR sort gate)": "high polyreactivity"},
      {"sequence": "QVQLVESGGGLVQAGGSLRLSCAASGRIFRRNTMGWYRQAPGKERELVAAITSSGGSTYADSVKGRFTISRDNAKNTVYLQMKSLKPEDTAVYYCATYVAYHRGYRTYDHWGQGTQVTVSS", "polyreactivity (PSR sort gate)": "low polyreactivity"},
      {"sequence": "QVQLVESGGGLVQAGGSLRLSCAASGRIFRRNTMGWYRQAPGKERELVAAITSSGGSTYADSVKGRFTISRDNAKNTVYLQMNSLTPEDTAVYYCATYVAYHRGYRTYDHWGQGTHVTVSS", "polyreactivity (PSR sort gate)": "low polyreactivity"},
      {"sequence": "QVQLVESGGGLVQAGGSLRLSCAASGRIFRRNTMGWYRQAPGKERELVATISKNGGSTYYADSVKGRFTISRDNAKNTVYLQMNSLKPADTAVYYCNAPDPSSTSYFPYELGYWGQGTQVTVSS", "polyreactivity (PSR sort gate)": "high polyreactivity"},
      {"sequence": "QVQLVESGGGLVQAGGSLRLSCAASGRIFRRYAMGWYRQAPAKERELVAAITTSGGSTYYADSVKGRFTISRDNAKNTVYLQMNSQNPADTAVYYCNTVSPYKYDWGLGTQVTVSS", "polyreactivity (PSR sort gate)": "high polyreactivity"},
      {"sequence": "QVQLVESGGGLVQAGGSLRLSCAASGRIFRRYAMGWYRQAPGKEREFVAAITKSGGSTYYADSVKGRFTISRDNAKNTVYLQMNSLKPEDTAVYYCATYPQYYFGYDYWGQGTQVTVSS", "polyreactivity (PSR sort gate)": "high polyreactivity"},
      {"sequence": "QVQLVESGGGLVQAGGSLRLSCAASGRIFRRYAMGWYRQAPGKERELVAAISWSGGATYYADSVKGRFTISRDNAKNTVYLQMNSLKPEDTAVYYCAALRYQQCRAYDYWGQGTLVTVSS", "polyreactivity (PSR sort gate)": "high polyreactivity"},
      {"sequence": "QVQLVESGGGLVQAGGSLRLSCAASGRIFRRYTMGWSRQAPGKERELVAAISSGGSTNYADSVKGRFTISRDNANNTVYLQMNSLKPEDTAVYYCAARFASRQHTIYYYWGQGTQVTVSS", "polyreactivity (PSR sort gate)": "high polyreactivity"}
    ]}
  ]
}
